Test results reported in patent US8889126B2, “Methods and compositions for treating neuropathies” (Washington University, priority 2004, dated 2014).

B1: NmPRT: nicotinamide phosphoribosyltransferase, expressed in neurons (protein, UniProt Q99KQ4 1-491, looked up)
Nicotinamide …: MNAAAEAEFNILLATDSYKVTHYKQYPPNTSKVYSYFECREKKTENSKVRKVKYEETVFYGLQYILNKYLKGKVVTKEKIQEAKEVYREHFQDDVFNERGWNYILEKYDGHLPIEVKAVPEGSVIPRGNVLFTVENTDPECYWLTNWIETILVQSWYPITVATNSREQKKILAKYLLETSGNLDGLEYKLHDFGYRGVSSQETAGIGASAHLVNFKGTDTVAGIALIKKYYGTKDPVPGYSVPAAEHSTITAWGKDHEKDAFEHIVTQFSSVPVSVVSDSYDIYNACEKIWGEDLRHLIVSRSTEAPLIIRPDSGNPLDTVLKVLDILGKKFPVTENSKGYKLLPPYLRVIQGDGVDINTLQEIVEGMKQKKWSIENVSFGSGGALLQKLTRDLLNCSFKCSYVVTNGLGVNVFKDPVADPNKRSKKGRLSLHRTPAGNFVTLEEGKGDLEEYGHDLLHTVFKNGKVTKSYSFDEVRKNAQLNIEQDVAPH
B2: dominant-negative Ufd2a mutant: Ufd2a containing a point mutation (P1140A) that inhibits wild-type Ufd2a function (protein, UniProt Q9ES00 1-1173, looked up, variant P1140A)
Ubiquitin conjugation factor …: MEELSADEIRRRRLARLAGGQTSQPTTPLTSPQRENPPGPPIAASAPGPSQSLGLNVHNMTPATSPIGAAGVAHRSQSSEGVSSLSSSPSNSLETQSQSLSRSQSMDIDGVSCEKSMSQVDVDSGIENMEVDENDRREKRSLSDKEPSSGPEVSEEQALQLVCKIFRVSWKDRDRDVIFLSSLSAQFKQNPKEVFSDFKDLIGQILMEVLMMSTQTRDENPFASLTATSQPIATAARSPDRNLMLNTGSSSGTSPMFCNMGSFSTSSLSSLGASGGASNWDSYSDHFTIETCKETDMLNYLIECFDRVGIEEKKAPKMCSQPAVSQLLSNIRSQCISHTALVLQGSLTQPRSLQQPSFLVPYMLCRNLPYGFIQELVRTTHQDEEVFKQIFIPILQGLALAAKECSLESDYFKYPLMALGELCETKFGKTHPMCNLVASLPLWLPKSLSPGSGRELQRLSYLGAFFSFSVFAEDDAKVVEKYFSGPAITLENTRVVSQSLQHYLELGRQELFKILHSILLNGETREAALSYMAALVNANMKKAQMQADDRLVSTDGFMLNLLWVLQQLSTKIKLETVDPTYIFHPRCRITLPNDETRINATMEDVNERLTELYGDQPPFSEPKFPTECFFLTLHAHHLSILPSCRRYIRRLRAIRELNRTVEDLKNNESQWKDSPLATRHREMLKRCKTQLKKLVRCKACADAGLLDESFLRRCLNFYGLLIQLMLRILDPAYPDVTLPLNSEVPKVFAALPEFYVEDVAEFLFFIVQYSPQVLYEPCTQDIVMFLVVMLCNQNYIRNPYLVAKLVEVMFMTNPSVQPRTQKFFEMIENHPLSTKLLVPSLMKFYTDVEHTGATSEFYDKFTIRYHISTIFKSLWQNIAHHGTFMEEFNSGKQFVRYINMLINDTTFLLDESLESLKRIHEVQEEMKNKEQWDQLPRDQQQARQSQLAQDERVSRSYLALATETVDMFHLLTKQVQKPFLRPELGPRLAAMLNFNLQQLCGPKCRDLKVENPEKYGFEPKKLLDQLTDIYLQLDCARFAKAIADDQRSYSKELFEEVISKMRKAGIKSTIAIEKFKLLAEKVEEIVAKNARAEIDYSDAPDEFRDPLMDTLMTDPVRLPSGTVMDRSIILRHLLNSPTDAFNRQMLTESMLEPVPELKEQIQAWMREKQSSDH
B3: NMNAT1: nicotinamide mononucleotide adenylyltransferase1, murine, lentivirally expressed (protein, UniProt Q9EPA7 1-285, looked up)
Nicotinamide/nicotinic acid …: MDSSKKTEVVLLACGSFNPITNMHLRLFELAKDYMHATGKYSVIKGIISPVGDAYKKKGLIPAHHRIIMAELATKNSHWVEVDTWESLQKEWVETVKVLRYHQEKLATGSCSYPQSSPALEKPGRKRKWADQKQDSSPQKPQEPKPTGVPKVKLLCGADLLESFSVPNLWKMEDITQIVANFGLICITRAGSDAQKFIYESDVLWRHQSNIHLVNEWITNDISSTKIRRALRRGQSIRYLVPDLVQEYIEKHELYNTESEGRNAGVTLAPLQRNAAEAKHNHSTL
modifications: lentivirally expressed

How the values were obtained:
DRG explant neurons = test: in vitro Wallerian degeneration assay: DRG explant cultures, axonal transection by removal of neuronal cell bodies; format: cell-based, mouse; conditions: lentivirus-infected DRG neurons
Procedure: (§1) To identify the mechanism of delayed axonal degeneration mediated by the Wld^s protein, we employed an in-vitro Wallerian degeneration model. Primary DRG explant neurons were infected with lentivirus expressing the appropriate proteins, and axons were injured by either removal of the neuronal cell body (transection) or growth in vincristine (toxic).
Mouse DRG explants from E12.5 embryos were cultured in the presence of 1 nM nerve growth factor. Non-neuronal cells were removed from the cultures by adding 5-fluorouracil to the culture medium. Transection of neurites was performed at 10-20 DIV using an 18-gauge needle to remove the neuronal cell bodies. […]
Lentiviral expression vectors were generated using HEK293T cells as described above. […] These lysates were analyzed by immunoblot to using anti-His tag monoclonal antibody (Qiagen) to detect expression of the respective hexahistidine-tagged proteins. […]
Quantitative analysis of axonal degeneration was performed as previously described (Zhai, et al., Neuron 39:217-25, 2003). […] Axons with a fragmented, non-refractile appearance were designated as “degenerated.” At each time point, at least 200 singly distinguishable axons were blindly scored from several randomly taken images of each culture. […]
Cell culture, in vitro axotomy, and quantification of axonal degeneration. […] Quantitative analysis of neurite degeneration was performed.

DRG neuronal explant = test: vincristine-induced axonal degeneration in DRG neuronal explants; format: cell-based, mouse; conditions: 0.5 μM vincristine for up to 9 d, lentiviral expression
Procedure: as §1
Quantitative analysis of axonal degeneration was performed as previously described (Zhai, et al., Neuron 39:217-25, 2003). Briefly, the cultures were examined using phase contrast microscopy at the indicated times. Axons with a fragmented, non-refractile appearance were designated as “degenerated.” At each time point, at least 200 singly distinguishable axons were blindly scored from several randomly taken images of each culture. […] For calculations of neurite-covered area, digitally captured images from quadruplicate samples of two independent experiments were analyzed using analysis 3.1 software (Soft Imaging System, Lakewood, Colo.).
In addition to mechanical transection, axonal protection in wld^s mice is also observed against other damaging agents such as ischemia and toxins (Coleman, et al., Trends Neurosci 25:532-37, 2002; Gillingwater, et al., J Cereb Blood Flow Metab 24:62-66, 2004). […] FIG. 2C illustrates protein expression in lentivirus-infected cells detected by immunoblot analysis using antibodies to the 6×His tag. […]

DRG neurons = test: overall cellular NAD levels in DRG neurons by microscale enzymatic assays; format: cell-based; conditions: NMNAT1 expressing vs wild type DRG neurons
Source text: Similarly, most enzymes that make up the NAD salvage pathway in yeast are also compartmentalized in the nucleus. […] Furthermore, levels of tissue NAD in the brains of wild type and wld^s mice are similar despite the increased levels of NMNAT activity in wld^s mice (Mack, et al., Nat Neurosci, 4:1199-206, 2001).

Molecule | axonal degeneration after transection in neurons expressing the construct (DRG explant neurons) | axon length and refractility in vincristine (DRG neuronal explant) | overall cellular NAD levels (DRG neurons)
B1 | shows axonal protection |  | 
B2 | neither of these methods resulted in delayed axonal degradation |  | 
B3 |  | maintained their original length and refractility | no changes in overall cellular NAD levels were found
